{"source": "patent US20140086829A1", "about": "(BIOREC S A, published 2014)", "binders": {"B1": {"name": "soluble scFv 2H1 antibody fragment (scFv, from another filing)", "scFv": "QQVQLVQSGAEVKKPGESLKISCKGSGYSFTSYWIGWVRQMPGKGLEWMGIIYPGDSDTRYSPSFQGQVTISADKSISTAYLQWSSLKASDTAMYYCARLVVRDTEIWGQGTMVTVSSAPQAKSSGSGSESKVDQAVVTQEPSLTVSPGGTVTLTCASSIGAVTSGNYPNWFQQRPGQPPRALIYSTSNKHSWTPARFSGSLLGGKAALTLSGAQPEDEAEYYCLLSYSGARPVFGGGTKLTVLGAAAGSEQKLISEEDLNSHHHHHH"}}, "key": {"[1]": {"biological_target": "T1, isoform 165 of human VEGF-A (Peprotech) (human, UniProt P15692-4 27-191)", "T1 construct": "also called human VEGF165; VEGF 165", "T1 sequence (P15692 other isoform, or with tags, fused parts or gaps limits assumed)": "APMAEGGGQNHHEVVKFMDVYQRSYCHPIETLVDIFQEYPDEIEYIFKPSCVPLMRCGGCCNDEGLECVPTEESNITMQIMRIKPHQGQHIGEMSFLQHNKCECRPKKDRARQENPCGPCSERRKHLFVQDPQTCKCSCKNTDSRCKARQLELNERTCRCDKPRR", "assay": "SPR, BIAcore-X; VEGF 165 coupled to CM5 chip; scFv injected; Langmuir 1:1"}, "[2]": {"biological_target": "T2, human GST-VEGF (human, UniProt P15692-9 27-147)", "T2 construct": "also called GST-VEGF humano; not shown: GST fusion partner", "T2 sequence (looked up)": "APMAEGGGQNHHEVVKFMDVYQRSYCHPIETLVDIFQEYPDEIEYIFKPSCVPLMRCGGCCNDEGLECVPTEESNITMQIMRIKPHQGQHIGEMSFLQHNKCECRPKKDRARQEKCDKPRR", "assay": "competition ELISA on coated GST-VEGF; soluble scFv 2H1 titrated; competitor phage scFv L1"}, "[3]": {"biological_target": "T2, human GST-VEGF", "assay": "competition ELISA on coated GST-VEGF; soluble scFv 2H1 titrated; competitor phage scFv L3"}, "[4]": {"biological_target": "T2, human GST-VEGF", "assay": "competition ELISA on coated GST-VEGF; soluble scFv 2H1 titrated; competitor phage scFv 2A7"}, "[5]": {"biological_target": "T2, human GST-VEGF", "assay": "competition ELISA on coated GST-VEGF; soluble scFv 2H1 titrated; competitor phage scFv 3C4"}, "[6]": {"biological_target": "T2, human GST-VEGF", "assay": "competition ELISA on coated GST-VEGF; soluble scFv 2H1 titrated; competitor phage scFv 3D4"}, "[7]": {"biological_target": "T2, human GST-VEGF", "assay": "competition ELISA on coated GST-VEGF; soluble scFv 2H1 titrated; competitor phage scFv 3E3"}, "[8]": {"biological_target": "T2, human GST-VEGF", "assay": "competition ELISA on coated GST-VEGF; soluble scFv 2H1 titrated; competitor phage scFv 3E9"}, "[9]": {"biological_target": "T2, human GST-VEGF", "assay": "competition ELISA on coated GST-VEGF; soluble scFv 2H1 titrated; competitor phage scFv 3F3"}, "[10]": {"biological_target": "T2, human GST-VEGF", "assay": "competition ELISA on coated GST-VEGF; soluble scFv 2H1 titrated; competitor phage scFv 4D8"}, "[11]": {"biological_target": "T2, human GST-VEGF", "assay": "competition ELISA on coated GST-VEGF; soluble scFv 2H1 titrated; competitor phage scFv 4H3"}, "[12]": {"biological_target": "T2, human GST-VEGF", "assay": "competition ELISA on coated GST-VEGF; soluble scFv 2H1 titrated; competitor phage scFv 1C9"}, "[13]": {"biological_target": "T2, human GST-VEGF", "assay": "competition ELISA on coated GST-VEGF; soluble scFv 2H1 titrated; competitor phage scFv 1E9"}, "[14]": {"biological_target": "T2, human GST-VEGF", "assay": "competition ELISA on coated GST-VEGF; soluble scFv 2H1 titrated; competitor phage scFv 1G4"}, "[15]": {"biological_target": "T2, human GST-VEGF", "assay": "competition ELISA on coated GST-VEGF; soluble scFv 2H1 titrated; competitor phage scFv 1H3"}, "[16]": {"biological_target": "T2, human GST-VEGF", "assay": "competition ELISA on coated GST-VEGF; soluble scFv 2H1 titrated; competitor phage scFv 2F6"}, "[17]": {"biological_target": "T2, human GST-VEGF", "assay": "competition ELISA on coated GST-VEGF; soluble scFv 2H1 titrated; competitor phage scFv 2H8"}, "[18]": {"biological_target": "T2, human GST-VEGF", "assay": "competition ELISA on coated GST-VEGF; soluble scFv 2H1 titrated; competitor phage scFv 4D8", "remark": "listed apart in the source"}, "[19]": {"biological_target": "T2, human GST-VEGF", "assay": "competition ELISA on coated GST-VEGF; soluble scFv 2H1 titrated; competitor phage scFv 2B12"}, "[20]": {"biological_target": "T2, human GST-VEGF", "assay": "competition ELISA on coated GST-VEGF; soluble scFv 2H1 titrated; competitor phage scFv 3B10"}, "[21]": {"biological_target": "T2, human GST-VEGF", "assay": "competition ELISA on coated GST-VEGF; soluble scFv 2H1 titrated; competitor phage scFv 4E11"}, "[22]": {"biological_target": "T2, human GST-VEGF", "assay": "competition ELISA on coated GST-VEGF; soluble scFv 2H1 titrated; competitor phage scFv 2H10"}, "[23]": {"biological_target": "T2, human GST-VEGF", "assay": "competition ELISA on coated GST-VEGF; soluble scFv 2H1 titrated; competitor phage scFv L3H5"}, "[24]": {"biological_target": "T2, human GST-VEGF", "assay": "competition ELISA on coated GST-VEGF; soluble scFv 2H1 titrated; competitor phage scFv L3H6"}, "[25]": {"biological_target": "T2, human GST-VEGF", "assay": "competition ELISA on coated GST-VEGF; soluble scFv 2H1 titrated; competitor phage scFv L3H7"}, "[26]": {"biological_target": "T2, human GST-VEGF", "assay": "competition ELISA on coated GST-VEGF; soluble scFv 2H1 titrated; competitor phage scFv 2H1 original"}}, "data": [{"binder": "B1", "values": [{"measurement": "Kd", "setting": "[1]", "result": 457, "unit": "nM"}, {"measurement": "IC50", "setting": "[2]", "result": 11.7, "unit": "µg/mL"}, {"measurement": "IC50", "setting": "[3]", "result": 358, "unit": "µg/mL"}, {"measurement": "IC50", "setting": "[4]", "result": 15.8, "unit": "µg/mL"}, {"measurement": "IC50", "setting": "[5]", "result": 29, "unit": "µg/mL"}, {"measurement": "IC50", "setting": "[6]", "result": 16.3, "unit": "µg/mL"}, {"measurement": "IC50", "setting": "[7]", "result": 35.1, "unit": "µg/mL"}, {"measurement": "IC50", "setting": "[8]", "result": 15, "unit": "µg/mL"}, {"measurement": "IC50", "setting": "[9]", "result": 48.9, "unit": "µg/mL"}, {"measurement": "IC50", "setting": "[10]", "result": 32, "unit": "µg/mL"}, {"measurement": "IC50", "setting": "[11]", "result": 12.2, "unit": "µg/mL"}, {"measurement": "IC50", "setting": "[12]", "result": 38.3, "unit": "µg/mL"}, {"measurement": "IC50", "setting": "[13]", "result": 46.2, "unit": "µg/mL"}, {"measurement": "IC50", "setting": "[14]", "result": 57.7, "unit": "µg/mL"}, {"measurement": "IC50", "setting": "[15]", "result": 117, "unit": "µg/mL"}, {"measurement": "IC50", "setting": "[16]", "result": 119, "unit": "µg/mL"}, {"measurement": "IC50", "setting": "[17]", "result": 46.6, "unit": "µg/mL"}, {"measurement": "IC50", "setting": "[18]", "result": 33, "unit": "µg/mL"}, {"measurement": "IC50", "setting": "[19]", "result": 21.1, "unit": "µg/mL"}, {"measurement": "IC50", "setting": "[20]", "result": 7.94, "unit": "µg/mL"}, {"measurement": "IC50", "setting": "[21]", "result": 5.28, "unit": "µg/mL"}, {"measurement": "IC50", "setting": "[22]", "result": 10.2, "unit": "µg/mL"}, {"measurement": "IC50", "setting": "[23]", "result": 940, "unit": "µg/mL"}, {"measurement": "IC50", "setting": "[24]", "result": 978, "unit": "µg/mL"}, {"measurement": "IC50", "setting": "[25]", "result": 890, "unit": "µg/mL"}, {"measurement": "IC50", "setting": "[26]", "result": 4.89, "unit": "µg/mL"}]}]}
